Measured values: patent US20230355720A1, “PHARMACEUTICAL COMPOSITION FOR PREVENTING OR TREATING BONE DISEASES, COMPRISING TRIPLE AGONIST OR CONJUGATE THEREOF HAVING ACTIVITY WITH RESPECT TO ALL OF GLUCAGON, GLP-1 AND GLP RECEPTORS” (HANMI PHARM. CO., LTD., priority 2020, published 2023)
Bridge positions count the residues as written; N and C are the ends. Square brackets hold non-standard residues; d marks the D form. Ends that are not written are not given here. * marks the point of attachment. Acetyl(2-(4-imidazolyl)) = O=C(Cc1c[nH]cn1)*; Aib = CC(C)(N)C(=O)O

How the values were obtained:
Assay in all cases: cell-based or functional assay
human GCG receptor = human GCG receptor (human, UniProt P47871 26-477)
Sequence of human GCG receptor (P47871 26-477): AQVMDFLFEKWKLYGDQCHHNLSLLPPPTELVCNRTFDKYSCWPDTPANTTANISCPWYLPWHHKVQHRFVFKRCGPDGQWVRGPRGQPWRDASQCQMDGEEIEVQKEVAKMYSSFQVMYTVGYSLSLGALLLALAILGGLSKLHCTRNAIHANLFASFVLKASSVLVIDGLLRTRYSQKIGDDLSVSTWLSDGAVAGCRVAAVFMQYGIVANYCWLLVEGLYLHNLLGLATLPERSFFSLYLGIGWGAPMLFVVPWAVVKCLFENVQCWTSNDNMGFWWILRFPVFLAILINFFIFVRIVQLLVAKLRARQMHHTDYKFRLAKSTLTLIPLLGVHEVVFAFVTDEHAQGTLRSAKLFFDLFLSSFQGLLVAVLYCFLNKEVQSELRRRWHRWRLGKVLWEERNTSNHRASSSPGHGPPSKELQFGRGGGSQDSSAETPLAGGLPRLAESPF

human GIP receptor = biological target: T1, human GIP receptor (human, UniProt P48546 22-466)
T1 sequence (looked up): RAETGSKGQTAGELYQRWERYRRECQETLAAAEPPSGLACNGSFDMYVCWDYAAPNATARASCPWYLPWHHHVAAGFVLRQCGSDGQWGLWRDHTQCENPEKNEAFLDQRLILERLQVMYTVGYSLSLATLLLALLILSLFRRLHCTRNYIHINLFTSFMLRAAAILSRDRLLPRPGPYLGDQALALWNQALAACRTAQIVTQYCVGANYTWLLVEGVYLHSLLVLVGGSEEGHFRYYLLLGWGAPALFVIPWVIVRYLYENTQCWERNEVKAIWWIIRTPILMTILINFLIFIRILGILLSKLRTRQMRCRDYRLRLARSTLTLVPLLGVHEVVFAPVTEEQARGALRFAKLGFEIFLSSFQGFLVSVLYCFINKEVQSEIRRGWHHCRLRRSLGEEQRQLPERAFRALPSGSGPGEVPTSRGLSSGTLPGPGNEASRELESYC

human GLP-1 receptor = human GLP-1 receptor (human, UniProt P43220 24-463)

Binder	In vitro activity (%) compared with native peptide, vs Glucagon (human GCG receptor) [%]	In vitro activity (%) compared with native peptide, vs GIP (human GIP receptor) [%]	In vitro activity (%) compared with native peptide, vs GLP-1 (human GLP-1 receptor) [%]
H[Aib]QGTFTSDYSKYLDEKRQKEFVNWLLAQKC (bridge 16-20) [triple agonist of SEQ ID NO: 34]	0.92	0.6	19.1
HGQGTFTSDCSKQLDGQAAQEFVAWLLAGGPSSGAPPPS [triple agonist of SEQ ID NO: 44]	< 0.1	< 0.1	1.3
HGQGTFTSDCSKYLDGQRAQEFVAWLLAGGPSSGAPPPS [triple agonist of SEQ ID NO: 47]	< 0.1	< 0.1	2.4
HGQGTFTSDCSKYLDGQRAQDFVNWLLAGGPSSGAPPPS [triple agonist of SEQ ID NO: 48]	< 0.1	< 0.1	1.5
HGQGTFTSDCSKYLDEQHAQEFVAWLLAGGPSSGAPPPS [triple agonist of SEQ ID NO: 46]	< 0.1	< 0.1	1.4
HGQGTFTSDCSKYMDGQAAQDFVAWLLAGGPSSGAPPPS [triple agonist of SEQ ID NO: 45]	< 0.1	< 0.1	6.6
H[Aib]QGTFTSDVSSYLLGQQQKEFIAWLVKGC [triple agonist of SEQ ID NO: 4]	< 0.1	< 0.1	8.5
H[Aib]EGTFTSDYSIAMDEIHQKDFVDWLLAEC (bridge 16-20) [triple agonist of SEQ ID NO: 54]	1.4	0.1	30.6
H[Aib]QGTFTSDYSIAMDEIHQKDFVNWLLNTC (bridge 16-20) [triple agonist of SEQ ID NO: 57]	< 0.1	0.3	11.7
[Acetyl(2-(4-imidazolyl))][Aib]QGTFTSDKSSYLDERAAQDFVQWLLDGGPSSGAPPPSS (not fully specified) [triple agonist of SEQ ID NO: 38]			2.3
[Acetyl(2-(4-imidazolyl))][Aib]QGTFTSDYSIAMDEIACKDFVNWLLNTK (bridge 16-20; not fully specified) [triple agonist of SEQ ID NO: 61]	< 0.1	2.8	59.8
H[Aib]QGTFTSDVSSYLLGQQQKEFIAWLVKGGGPSSGAPPPSC [triple agonist of SEQ ID NO: 5]	< 0.1	< 0.1	42.1
H[Aib]QGTFTSDYSKYLDECRQKEFVQWLLNGGPSSGAPPPSG (bridge 16-20) [triple agonist of SEQ ID NO: 37]	6.21	2.2	236
Y[Aib]QGTFTSDYSKYLDEKRAKEFVQWLLDHHPSSGQPPPSC (bridge 16-20) [triple agonist of SEQ ID NO: 42]	206	7.8	33.9
H[Aib]QGTFTSDYSKYLDGQHAQCFVAWLLAGGGPSSGAPPPS [triple agonist of SEQ ID NO: 39]	0.53	< 0.1	13.9
H[Aib]QGTFTSDYSKYLDEKRAKEFVQWLLDHHPSSGQPPPSC (bridge 16-20) [triple agonist of SEQ ID NO: 50]	50.5	2.7	67.4
Y[Aib]QGTFTSDYSKYLDEKRAKEFVQWLLDHHCSSGQPPPS (bridge 16-20) [triple agonist of SEQ ID NO: 43]	88.4	3.7	12.6
[Acetyl(2-(4-imidazolyl))][Aib]QGTFTSDYSIAMDEKHCKDFVNWLLNTK (bridge 16-20; not fully specified) [triple agonist of SEQ ID NO: 60]	< 0.1	8.2	106
H[Aib]QGTFTSDYSIAMDEIHQKDFVNWLLAQC (bridge 16-20; not fully specified) [triple agonist of SEQ ID NO: 55]	0.7	2.4	27.1
H[Aib]QGTFTSDVSSYLDGQAAKEFIAWLVKGC [triple agonist of SEQ ID NO: 1]	< 0.1	< 0.1	3.2
[Acetyl(2-(4-imidazolyl))][Aib]QGTFTSDKSKYLDERAAQDFVQWLLDGGPSSGAPPPS (not fully specified) [triple agonist of SEQ ID NO: 62]	< 0.1	< 0.1	5.2
[Acetyl(2-(4-imidazolyl))][Aib]QGTFTSDYSICMDEKHQKDFVNWLLNTK (bridge 16-20; not fully specified) [triple agonist of SEQ ID NO: 59]	< 0.1	4	40.3
H[Aib]QGTFTSDKSKYLDERACQDFVQWLLDGGPSSGAPPPS (not fully specified) [triple agonist of SEQ ID NO: 40]	< 0.1	< 0.1	75.2
H[Aib]QGTFTSDKSKYLDECAAQDFVQWLLDGGPSSGAPPPS (not fully specified) [triple agonist of SEQ ID NO: 41]	< 0.1	< 0.1	34.3
H[Aib]EGTFTSDYSIAMDEIHQKDFVNWLLAQC (bridge 16-20; not fully specified) [triple agonist of SEQ ID NO: 53]	8.4	1.3	161
H[Aib]QGTFTSDVSSYLDGQAAKEFVAWLLKGC [triple agonist of SEQ ID NO: 6]	< 0.1	< 0.1	17
H[Aib]QGTFTSDYSKYLDEKRQKEFVQWLLNTKC (bridge 16-20) [triple agonist of SEQ ID NO: 58]	2.6	0.2	39.1
[Acetyl(2-(4-imidazolyl))][Aib]QGTFTSDYSICMDEIHQKDFVNWLLNTK (bridge 16-20) [triple agonist of SEQ ID NO: 49]	< 0.1	3.3	29.8
H[Aib]QGTFTSDYSKYLCEKRQKEFVQWLLNGGPSSGAPPPSG (bridge 16-20) [triple agonist of SEQ ID NO: 36]	0.39	0.2	37.4
